These results are taken from patent US20260001928A1 (CORTERIA PHARMACEUTICALS, priority 2022, published 2026).

*1 amine or outer side, *2 acyl side, *3 side chain or, on linkers, in order; H or OH if unused. Where no end group is shown, it is not given here. Side-chain parts run from the residue outwards. [ ]: non-standard residue; d: D form. The star is where a group is joined. C20 diacid = O=C(O)CCCCCCCCCCCCCCCCCCC(=O)*; γGlu = O=C(O)[C@H](CCC(=O)[*:2])N[*:1]; NMeI = CC[C@H](C)[C@H](NC)C(=O)O; AEEA = NCCOCCOCC(=O)O; Aib = CC(C)(N)C(=O)O

The target of assay [1] is T1, CRF1R (corticotropin-releasing factor receptor 1), on the CRF1R-overexpression CHO-K1 cell line clone 2 (UniProt P34998 24-415, limits assumed).
T1 sequence (looked up): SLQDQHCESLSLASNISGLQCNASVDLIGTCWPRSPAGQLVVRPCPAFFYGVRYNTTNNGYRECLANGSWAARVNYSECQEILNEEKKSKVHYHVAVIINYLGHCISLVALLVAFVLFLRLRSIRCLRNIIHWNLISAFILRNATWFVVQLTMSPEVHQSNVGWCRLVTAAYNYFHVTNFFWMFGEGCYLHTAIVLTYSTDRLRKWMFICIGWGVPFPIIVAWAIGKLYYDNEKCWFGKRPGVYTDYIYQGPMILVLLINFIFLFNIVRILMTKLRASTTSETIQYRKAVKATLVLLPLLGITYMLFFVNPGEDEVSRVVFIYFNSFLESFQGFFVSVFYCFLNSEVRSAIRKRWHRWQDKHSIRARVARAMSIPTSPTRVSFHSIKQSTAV
Put plainly: cell-based or functional assay.

In assay [2] the target is Rat CRF2 a (corticotropin-releasing factor receptor 2), on the A7R5 rat aortic smooth muscle cell line (rat, UniProt P47866 20-411). Put plainly: cell-based or functional assay.
Sequence of Rat CRF2 a (corticotropin-releasing factor receptor 2), on the A7R5 rat aortic smooth muscle cell line (P47866 20-411): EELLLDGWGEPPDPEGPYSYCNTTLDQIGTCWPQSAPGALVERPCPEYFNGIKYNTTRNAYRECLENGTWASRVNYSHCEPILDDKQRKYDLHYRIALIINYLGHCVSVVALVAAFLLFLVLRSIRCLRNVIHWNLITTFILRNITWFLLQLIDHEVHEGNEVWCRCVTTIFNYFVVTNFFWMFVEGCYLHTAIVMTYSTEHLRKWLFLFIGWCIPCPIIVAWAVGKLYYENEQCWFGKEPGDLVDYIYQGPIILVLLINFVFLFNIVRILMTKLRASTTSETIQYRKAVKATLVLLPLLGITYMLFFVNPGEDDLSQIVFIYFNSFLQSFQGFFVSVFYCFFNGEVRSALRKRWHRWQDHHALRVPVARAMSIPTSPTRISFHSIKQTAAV

B1: peptide of SEQ ID NO: 238 (peptide)
peptide: Ac-IVLSLD[dV]PIKLK([AEEA-AEEA-γGlu-C20 diacid])KILLEQEKQKKQREQAETN[Aib]QILAQV-NH2
SMILES: CC[C@H](C)[C@H](NC(C)=O)C(=O)N[C@H](C(=O)N[C@@H](CC(C)C)C(=O)N[C@@H](CO)C(=O)N[C@@H](CC(C)C)C(=O)N[C@@H](CC(=O)O)C(=O)N[C@@H](C(=O)N1CCC[C@H]1C(=O)N[C@H](C(=O)N[C@@H](CCCCN)C(=O)N[C@@H](CC(C)C)C(=O)N[C@@H](CCCCNC(=O)COCCOCCNC(=O)COCCOCCNC(=O)CC[C@H](NC(=O)CCCCCCCCCCCCCCCCCCC(=O)O)C(=O)O)C(=O)N[C@@H](CCCCN)C(=O)N[C@H](C(=O)N[C@@H](CC(C)C)C(=O)N[C@@H](CC(C)C)C(=O)N[C@@H](CCC(=O)O)C(=O)N[C@@H](CCC(N)=O)C(=O)N[C@@H](CCC(=O)O)C(=O)N[C@@H](CCCCN)C(=O)N[C@@H](CCC(N)=O)C(=O)N[C@@H](CCCCN)C(=O)N[C@@H](CCCCN)C(=O)N[C@@H](CCC(N)=O)C(=O)N[C@@H](CCCNC(=N)N)C(=O)N[C@@H](CCC(=O)O)C(=O)N[C@@H](CCC(N)=O)C(=O)N[C@@H](C)C(=O)N[C@@H](CCC(=O)O)C(=O)N[C@H](C(=O)N[C@@H](CC(N)=O)C(=O)NC(C)(C)C(=O)N[C@@H](CCC(N)=O)C(=O)N[C@H](C(=O)N[C@@H](CC(C)C)C(=O)N[C@@H](C)C(=O)N[C@@H](CCC(N)=O)C(=O)N[C@H](C(N)=O)C(C)C)[C@@H](C)CC)[C@@H](C)O)[C@@H](C)CC)[C@@H](C)CC)C(C)C)C(C)C
For B1, in assay [1], the “EC50 [nM] (cAMP, CRF1R-overexpression CHO-K1 cells)” value was over 250 nM and the “Emax (% I) (cAMP, 100% = Sauvagine at 100 nM)” value (“Emax (% I)” below) was 12 % I. The “EC50 [nM] 0% HSA (cAMP, A7R5 rat aortic smooth muscle cells)” value (“EC50 [nM] 0% HSA” below) in assay [2] was 0.09 nM.

B2: peptide of SEQ ID NO: 237 (peptide)
peptide: [NMeI]VLSLD[dV]PIKLK([AEEA-AEEA-γGlu-C20 diacid])KILLEQEKQKEQREQAETN[Aib]QILAQV-NH2
modifications: N-terminus assumed
SMILES: CC[C@H](C)[C@H](NC)C(=O)N[C@H](C(=O)N[C@@H](CC(C)C)C(=O)N[C@@H](CO)C(=O)N[C@@H](CC(C)C)C(=O)N[C@@H](CC(=O)O)C(=O)N[C@@H](C(=O)N1CCC[C@H]1C(=O)N[C@H](C(=O)N[C@@H](CCCCN)C(=O)N[C@@H](CC(C)C)C(=O)N[C@@H](CCCCNC(=O)COCCOCCNC(=O)COCCOCCNC(=O)CC[C@H](NC(=O)CCCCCCCCCCCCCCCCCCC(=O)O)C(=O)O)C(=O)N[C@@H](CCCCN)C(=O)N[C@H](C(=O)N[C@@H](CC(C)C)C(=O)N[C@@H](CC(C)C)C(=O)N[C@@H](CCC(=O)O)C(=O)N[C@@H](CCC(N)=O)C(=O)N[C@@H](CCC(=O)O)C(=O)N[C@@H](CCCCN)C(=O)N[C@@H](CCC(N)=O)C(=O)N[C@@H](CCCCN)C(=O)N[C@@H](CCC(=O)O)C(=O)N[C@@H](CCC(N)=O)C(=O)N[C@@H](CCCNC(=N)N)C(=O)N[C@@H](CCC(=O)O)C(=O)N[C@@H](CCC(N)=O)C(=O)N[C@@H](C)C(=O)N[C@@H](CCC(=O)O)C(=O)N[C@H](C(=O)N[C@@H](CC(N)=O)C(=O)NC(C)(C)C(=O)N[C@@H](CCC(N)=O)C(=O)N[C@H](C(=O)N[C@@H](CC(C)C)C(=O)N[C@@H](C)C(=O)N[C@@H](CCC(N)=O)C(=O)N[C@H](C(N)=O)C(C)C)[C@@H](C)CC)[C@@H](C)O)[C@@H](C)CC)[C@@H](C)CC)C(C)C)C(C)C
As for B2, in assay [1], the “EC50 [nM] (cAMP, CRF1R-overexpression CHO-K1 cells)” value is over 250 nM and the “Emax (% I)” value is 6 % I. In assay [2], the “EC50 [nM] 0% HSA” value turned out to be 0.63 nM.

B3: peptide of SEQ ID NO: 240 (peptide)
peptide: Ac-IVLSLD[dV]PIKLK([AEEA-AEEA-γGlu-C20 diacid])KILLEQEKQKAQREQAETN[Aib]QILAQV-NH2
SMILES: CC[C@H](C)[C@H](NC(C)=O)C(=O)N[C@H](C(=O)N[C@@H](CC(C)C)C(=O)N[C@@H](CO)C(=O)N[C@@H](CC(C)C)C(=O)N[C@@H](CC(=O)O)C(=O)N[C@@H](C(=O)N1CCC[C@H]1C(=O)N[C@H](C(=O)N[C@@H](CCCCN)C(=O)N[C@@H](CC(C)C)C(=O)N[C@@H](CCCCNC(=O)COCCOCCNC(=O)COCCOCCNC(=O)CC[C@H](NC(=O)CCCCCCCCCCCCCCCCCCC(=O)O)C(=O)O)C(=O)N[C@@H](CCCCN)C(=O)N[C@H](C(=O)N[C@@H](CC(C)C)C(=O)N[C@@H](CC(C)C)C(=O)N[C@@H](CCC(=O)O)C(=O)N[C@@H](CCC(N)=O)C(=O)N[C@@H](CCC(=O)O)C(=O)N[C@@H](CCCCN)C(=O)N[C@@H](CCC(N)=O)C(=O)N[C@@H](CCCCN)C(=O)N[C@@H](C)C(=O)N[C@@H](CCC(N)=O)C(=O)N[C@@H](CCCNC(=N)N)C(=O)N[C@@H](CCC(=O)O)C(=O)N[C@@H](CCC(N)=O)C(=O)N[C@@H](C)C(=O)N[C@@H](CCC(=O)O)C(=O)N[C@H](C(=O)N[C@@H](CC(N)=O)C(=O)NC(C)(C)C(=O)N[C@@H](CCC(N)=O)C(=O)N[C@H](C(=O)N[C@@H](CC(C)C)C(=O)N[C@@H](C)C(=O)N[C@@H](CCC(N)=O)C(=O)N[C@H](C(N)=O)C(C)C)[C@@H](C)CC)[C@@H](C)O)[C@@H](C)CC)[C@@H](C)CC)C(C)C)C(C)C
For the molecule B3, in assay [1], the “EC50 [nM] (cAMP, CRF1R-overexpression CHO-K1 cells)” value was over 250 nM and the “Emax (% I)” value was 4 % I. Besides, in assay [2], the “EC50 [nM] 0% HSA” value worked out at 2.3 nM.

B4: peptide of SEQ ID NO: 236 (peptide)
peptide: Ac-IVLSLD[dV]PIKLK([AEEA-AEEA-γGlu-C20 diacid])KILLEQEKQKEQREQAETN[Aib]QILAQV-NH2
SMILES: CC[C@H](C)[C@H](NC(C)=O)C(=O)N[C@H](C(=O)N[C@@H](CC(C)C)C(=O)N[C@@H](CO)C(=O)N[C@@H](CC(C)C)C(=O)N[C@@H](CC(=O)O)C(=O)N[C@@H](C(=O)N1CCC[C@H]1C(=O)N[C@H](C(=O)N[C@@H](CCCCN)C(=O)N[C@@H](CC(C)C)C(=O)N[C@@H](CCCCNC(=O)COCCOCCNC(=O)COCCOCCNC(=O)CC[C@H](NC(=O)CCCCCCCCCCCCCCCCCCC(=O)O)C(=O)O)C(=O)N[C@@H](CCCCN)C(=O)N[C@H](C(=O)N[C@@H](CC(C)C)C(=O)N[C@@H](CC(C)C)C(=O)N[C@@H](CCC(=O)O)C(=O)N[C@@H](CCC(N)=O)C(=O)N[C@@H](CCC(=O)O)C(=O)N[C@@H](CCCCN)C(=O)N[C@@H](CCC(N)=O)C(=O)N[C@@H](CCCCN)C(=O)N[C@@H](CCC(=O)O)C(=O)N[C@@H](CCC(N)=O)C(=O)N[C@@H](CCCNC(=N)N)C(=O)N[C@@H](CCC(=O)O)C(=O)N[C@@H](CCC(N)=O)C(=O)N[C@@H](C)C(=O)N[C@@H](CCC(=O)O)C(=O)N[C@H](C(=O)N[C@@H](CC(N)=O)C(=O)NC(C)(C)C(=O)N[C@@H](CCC(N)=O)C(=O)N[C@H](C(=O)N[C@@H](CC(C)C)C(=O)N[C@@H](C)C(=O)N[C@@H](CCC(N)=O)C(=O)N[C@H](C(N)=O)C(C)C)[C@@H](C)CC)[C@@H](C)O)[C@@H](C)CC)[C@@H](C)CC)C(C)C)C(C)C
As for B4, in assay [1], the “EC50 [nM] (cAMP, CRF1R-overexpression CHO-K1 cells)” value is over 250 nM and the “Emax (% I)” value worked out at 7 % I. In assay [2], the “EC50 [nM] 0% HSA” value came to 2.81 nM.
